Test results from PMC8800115, “The ASCC2 CUE domain in the ALKBH3–ASCC DNA repair complex recognizes adjacent ubiquitins in K63-linked polyubiquitin” (The Journal of Biological Chemistry, 2021).

Biological target: T1, K63-linked diubiquitin (UniProt P0CG48 1-76; P0CG48 1-76, K48R | K63R | D77 extension, distal ubiquitin: C-terminal G76 in an isopeptide bond with K63 of the proximal ubiquitin | proximal ubiquitin: K63 in an isopeptide bond with G76 of the distal ubiquitin)
T1 construct: ubiquitin, residues 1 to 76, K48R/K63R; distal position of K63Ub2; ubiquitin, residues 1 to 76, with a D77 extension; proximal position of K63Ub2; Two ubiquitins joined covalently; For NMR either the distal or the proximal ubiquitin was 15N-labelled; also called K63Ub2; WT K63Ub2
Assay: ITC; MicroCal iTC200; proteins dialysed in 20 mM Hepes pH 7.5, 150 mM NaCl, 200 μM TCEP; 2-μl injections; who was in the cell is not given; ranges of Kd are from fits with N fixed to 1 (first value: active concentration in the cell varied, second: in the syringe); Kd of S470R and E467R/S470R called apparent
Conditions: both partners purified

B1: full-length ASCC2 (natural protein, human, UniProt Q9H1I8 1-757, looked up)
chain: MPALPLDQLQITHKDPKTGKLRTSPALHPEQKADRYFVLYKPPPKDNIPALVEEYLERATFVANDLDWLLALPHDKFWCQVIFDETLQKCLDSYLRYVPRKFDEGVASAPEVVDMQKRLHRSVFLTFLRMSTHKESKDHFISPSAFGEILYNNFLFDIPKILDLCVLFGKGNSPLLQKMIGNIFTQQPSYYSDLDETLPTILQVFSNILQHCGLQGDGANTTPQKLEERGRLTPSDMPLLELKDIVLYLCDTCTTLWAFLDIFPLACQTFQKHDFCYRLASFYEAAIPEMESAIKKRRLEDSKLLGDLWQRLSHSRKKLMEIFHIILNQICLLPILESSCDNIQGFIEEFLQIFSSLLQEKRFLRDYDALFPVAEDISLLQQASSVLDETRTAYILQAVESAWEGVDRRKATDAKDPSVIEEPNGEPNGVTVTAEAVSQASSHPENSEEEECMGAAAAVGPAMCGVELDSLISQVKDLLPDLGEGFILACLEYYHYDPEQVINNILEERLAPTLSQLDRNLDREMKPDPTPLLTSRHNVFQNDEFDVFSRDSVDLSRVHKGKSTRKEENTRSLLNDKRAVAAQRQRYEQYSVVVEEVPLQPGESLPYHSVYYEDEYDDTYDGNQVGANDADSDDELISRRPFTIPQVLRTKVPREGQEEDDDDEEDDADEEAPKPDHFVQDPAVLREKAEARRMAFLAKKGYRHDSSTAVAGSPRGHGQSRETTQERRKKEANKATRANHNRRTMADRKRSKGMIPS
notes: source: E. coli Rosetta (DE3), purified (HisTrap, Superdex 200)
stoichiometry N: 1 ASCC2 per K63Ub2
